In the series the test system is MS2 coat protein. The series can be described thus: apparent KD of MS2 coat protein; designed switch direction (-1 OFF switch, 1 ON switch): -1; higher = weaker reporter binding. The method, boiled down: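 Apparent KD, taken as the median over clusters for each design, was obtained by curve-fitting normalised cluster fluorescence. Designed RNA switches had been transcribed on Illumina chips by stalled E. coli RNA polymerase and titrated with SNAP-549-labelled MS2 coat protein, doubling from 0.7 or 1.5 nM to 3 µM.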

The mark [1] stands for this setting: Eterna round: R95, input ligand: FMN 200 uM.
The mark [2] stands for this setting: Eterna round: R95, input ligand: microRNA oligo, concentration not stated.
[3] abbreviates: Eterna round: R95, input ligand: none.
Setting [4] is: input ligand: microRNA oligo, concentration not stated.

The values below come from the supplement of paper PMC9170038.

With “GGAGCAAAUGUCAGGAUAUCGUGGUCGAUAGAUCACGAGAAGGGACAUGAGGAUCACCCAUGUCAGUCCGCUCC [Mat - Exclusion 4 - Eli Mod - D58] (Eterna round: R97, puzzle: Brourd's mod of Exclusion 4)”, the “apparent KD of MS2 coat protein” value by setting is: (input ligand: FMN 200 uM) 22 nM; (input ligand: none) 14.3 nM.
In the case of “AGAAAUGCCCAUGGCCGCAAGCUUUUUACUUGUCUUACCACAUGAGGAUCACCCAUGUGACAUGGAAACCUUAUGAU [Sensor v3, turn-off variant 2 (MOD of Oranla v.2)] (puzzle: Sensor v3, turn-off variant 2)”, the “apparent KD of MS2 coat protein” value runs as follows: under setting [1], 30.3 nM; under setting [2], 97 nM; under setting [3], 28.1 nM.
On to “AAUCCACAUGAGGAUCACCCAUGUCAGGAUAUCUUUGGCCUAACAUGUUAGGACCGUUAGAGAAGGGACACGAU [EX1 B.28] (Eterna round: R97, puzzle: Exclusion 1)”, for which the “apparent KD of MS2 coat protein” value worked out at 70.3 nM (input ligand: FMN 200 uM) and 18.2 nM (input ligand: none).
For “CGAUGGCGAGGAUAUACAUGAGGAUCACCCAUGUGAGAGAUACUAGUGAGGUCGAUUAGUAGAAGGCGCUGUCG [Mat - Exclusion 3 - Eli Mod - D70] (Eterna round: R97, puzzle: Exclusion 3)”, in that order: 883 nM and 38.6 nM.
Turning to “GUAAAACAUGUAGGAUAUGCGUGGCAAAGCUAUGCAGAAGGACAUGAGGAUCACCCAUGUUAAAGCGUCUGAGUACAGAUGCAA [Mat - Exclusion NG 1 - Mod of JL - D96] (Eterna round: R96, puzzle: Exclusion NG 1)”, the “apparent KD of MS2 coat protein” value by setting is: (input ligand: FMN 200 uM) 445 nM; under setting [4], 27.4 nM; (input ligand: none) 36 nM.
Turning to “AUGGUACAUGAGGAUCACCCAUGUUAGGAUAUCGCGUGAUCUAAAACUAAGAGACACACGAGAAGGGACGACAU (puzzle: Exclusion 1)”, the “apparent KD of MS2 coat protein” value under setting [2] amounted to 128 nM.
On to “UGUGUGAGACAGGAUAUGCUGGAUGAAAGGCAGGUAGAAGGGUCUACAUGAGGAUCACCCAUGUGGCCGGUUGG [Ex6 #73] (Eterna round: R97, puzzle: Exclusion 6)”, for which the “apparent KD of MS2 coat protein” value (input ligand: FMN 200 uM) was 20.6 nM and the “apparent KD of MS2 coat protein” value (input ligand: none) is 20.4 nM.
Turning to “GAGGGACAUGAGGAUCACCCAUGUGAGGAUAUGUGAGAAGGAUUGGAGAGAAUAAGAAACAGAAGGCGCGGGAG [JR_Exclu1_Sub087] (puzzle: Exclusion 1)”, the “apparent KD of MS2 coat protein” value runs as follows: under setting [1], 48.9 nM; under setting [2], 52.5 nM; under setting [3], 116 nM.
As to “UAAAGUAUAUAGGAUAUCUAGCUGGUAACAGCUAGAGAAGGAUGUACAUGAGGAUCACCCAUGUAAAUCAGUGA [Ex6/14-A2] (Eterna round: R97, puzzle: Exclusion 6)”, the “apparent KD of MS2 coat protein” value is, setting by setting: (input ligand: FMN 200 uM) 23.3 nM; (input ligand: none) 17.9 nM.
For “UCCUCACCUUAGGAUAUCUUGACGGGACUCUCAGGAGAAGGAAGGACAUGAGGAUCACCCAUGUUCAAAACAAC [EX6 B.18] (Eterna round: R97, puzzle: Exclusion 6)”, the “apparent KD of MS2 coat protein” value was 50.2 nM (input ligand: FMN 200 uM) and 23.2 nM (input ligand: none).
Regarding “UAUUAGCAAGCGAGAUCCCACAUGAGGAUCACCCAUGUAAUAAAGCAUCCAGAAUUACUGGGUGCAGCUCGUCUUAU [Winner reversed engineered 11] (Eterna round: R97, puzzle: Sensor, turn-off variant 1)”, the “apparent KD of MS2 coat protein” value is, setting by setting: (input ligand: FMN 200 uM) 32.7 nM; (input ligand: none) 31 nM.
For “AGGGACGUAGGAUAUACCGUGUAGUACAUGAGGAUCACCCAUGUUUGCCUCAUAGUCCACGUAGAAGGAUGUGACA [Eternabot (L2) Solution 37] (Eterna round: R97, puzzle: Exclusion 5)”, in that order: 70.9 nM and 64.1 nM.
With “UUAUUAUAUGUAGGAUAUGCAUAUUAUUAUUAUGCAGAAGGACAUGAGGAUCACCCAUGUAUAUUGUUGUUAUGUAUUAUAUAU [Title] (Eterna round: R96, puzzle: Exclusion NG 1)”, the “apparent KD of MS2 coat protein” value turned out to be 40.4 nM (input ligand: FMN 200 uM), 24.1 nM under setting [4] and 31.3 nM (input ligand: none).
Turning to “CUCAGGUCAGGAUAUGUAGACCGGUGCAGACACUACGGGAAACAGAAGGGACAUGAGGAUCACCCAUGUUCGUA [EX4 B.11] (Eterna round: R97, puzzle: Exclusion 4)”, the “apparent KD of MS2 coat protein” value (input ligand: FMN 200 uM) worked out at 45 nM and the “apparent KD of MS2 coat protein” value (input ligand: none) was determined as 30.4 nM.
For the sequence “UUAAUUAAUUUAAUAUAAGAUCACAUGAGGAUCACCCAUGUAUAGGAUAUCAGCUCGAUUAGAGCUGAGAAGGAUACAUAAUAU [ExNG3/2-B1] (Eterna round: R96, puzzle: Exclusion NG 3)”, the “apparent KD of MS2 coat protein” value is, setting by setting: (input ligand: FMN 200 uM) 135 nM; under setting [4], 188 nM; (input ligand: none) 216 nM.
For the sequence “AAGUCGAGCGUGAGGAUAUCGUUCGAACGACCGAACGAGAAGGCACAUGAGGAUCACCCAUGUGAUUCAGCUCA [Brourd's EX4 #47] (Eterna round: R97, puzzle: Brourd's mod of Exclusion 4)”, the “apparent KD of MS2 coat protein” value came out at 93.6 nM (input ligand: FMN 200 uM) and 19.7 nM (input ligand: none).
Consider “AAGGACAGAGGAUAUACAUAGAUACAGAUUCAUGUAGAACUACAUGAGGAUCACCCAUGUAGAAGGCUGUCCUA [Fiskers Ex 2 - 2] (puzzle: Exclusion 2)”, for which, under setting [2], the “apparent KD of MS2 coat protein” value was found to be 29.4 nM.
For the sequence “UUUGUUUUGGUAGGAUAUACUUUUAAUUUCUCUUUCCUUACAUGAGGAUCACCCAUGUUUACAUUGUAGAAGGACCACUUUGUU [JR_ExcNG2_Sub050] (Eterna round: R96, puzzle: Exclusion NG 2)”, the “apparent KD of MS2 coat protein” value under setting [4] worked out at 15.9 nM.
Take “CUGGUGUGAGGAUAUCAAAGACCUCGGUAAAGAACCGAGGAUGAGAAGGCACAUGAGGAUCACCCAUGUAACAA [Lauscege] (puzzle: Exclusion 4)”: the “apparent KD of MS2 coat protein” value under setting [2] worked out at 22.6 nM.
Take “UUUAAUUUUUUUUUUUUACAAGCUUUUUGCUCGUCUUAUACAUGAGGAUCACCCAUGUGGAUGGGAAGUAAAUUAUC [JMF 52] (puzzle: Sensor v3, turn-off variant 2)”: the “apparent KD of MS2 coat protein” value under setting [1] was 23.9 nM, the “apparent KD of MS2 coat protein” value under setting [2] is 59.2 nM and the “apparent KD of MS2 coat protein” value under setting [3] turned out to be 20.9 nM.
As to “AGCUGUGGCCGAGGAUAUCUAUCCAAUAAAACCGAAAUAUAAUCGGACAUGAGGAUCACCCAUGUAGAGAAGGCGGUCUCAGCA [Eli eng2 - 094] (Eterna round: R96, puzzle: Exclusion NG 2)”, the “apparent KD of MS2 coat protein” value under setting [4] turned out to be 16.4 nM.
As for “AUAAUGUCAGGAUAUCAGUCGACUAGCUUCGGCUAGUCGACUGAGAAGGGACAUGAGGAUCACCCAUGUAGAUC [E4/18-A1] (Eterna round: R97, puzzle: Exclusion 4)”, the “apparent KD of MS2 coat protein” value (input ligand: FMN 200 uM) was 267 nM and the “apparent KD of MS2 coat protein” value (input ligand: none) turned out to be 1120 nM.
The matching figures for “GUUAACGAUGAGGAUAUAUGAUAUCAAAGCAUCAUAGAAGGCAUCACAUGAGGAUCACCCAUGUGAUCUUCUUU [jl-ex6-4.10 ViennaUCT mod] (Eterna round: R97, puzzle: Exclusion 6)”: 83.6 nM and 15.2 nM.
As for “CCCAGUUAGAGAGGAUAUCGUACAUGAGGAUCACCCAUGUAAUAAAUGAGGAUUUCGGGUGUCUGCGAGAAGGCUCGGAUAGGC [Ostracism 31 - Jieux - Exclusion NG 2] (Eterna round: R96, puzzle: Exclusion NG 2)”, the “apparent KD of MS2 coat protein” value (input ligand: FMN 200 uM) stood at 105 nM, the “apparent KD of MS2 coat protein” value under setting [4] was 32.9 nM and the “apparent KD of MS2 coat protein” value (input ligand: none) amounted to 47 nM.
Turning to “GGGUUUCCGCAGGAUAUACGAUGGCGCAAUGUAGUAGAAGGGCGGACAUGAGGAUCACCCAUGUUCGUUCCUCG [EX6 C.25] (Eterna round: R97, puzzle: Exclusion 6)”, the “apparent KD of MS2 coat protein” value was 26.4 nM (input ligand: FMN 200 uM) and 14.6 nM (input ligand: none).
The matching figures for “GCCGAAAAUGUGAGGAUAUACCUAUGGAUACAUAGGUAGAAGGCACAUGAGGAUCACCCAUGUGUCCAAACGGC [Eli bmx4 4.22] (Eterna round: R97, puzzle: Brourd's mod of Exclusion 4)”: 58.2 nM and 14.5 nM.
Take “UACACUGCAUGAGGAUCAAACAUGAGGAUCACCCAUGUAUUGCAAGCUUUUUGCACGUCUUAUAAUUAUGUAGUGUA [Electric Eye 20 - Jieux - Sensor, turn-off variant 1] (Eterna round: R97, puzzle: Sensor, turn-off variant 1)”: the “apparent KD of MS2 coat protein” value is, setting by setting: (input ligand: FMN 200 uM) 17.2 nM; (input ligand: none) 17.2 nM.
Turning to “GUUUUCAGACGGAGAUCCUACAUGAGGAUCACCCAUGUCUCUCUUGCUAAUUGCUCGUCUUUUUCUCCUCUGUUCUC [Elimod 36 - Jieux - Sensor, turn-off variant 1] (Eterna round: R97, puzzle: Sensor, turn-off variant 1)”, the “apparent KD of MS2 coat protein” value reads like this: (input ligand: FMN 200 uM) 81.2 nM; (input ligand: none) 95.8 nM.
“GUGCCGCGAGGAUAUACAGACGGGUCCAAAACGUGUCUCGGACUUGAGGAUCACCCAAGUAGAAGGCUUUUCAG [salish99_ex2_r4_621] (Eterna round: R97, puzzle: Exclusion 2)”: the “apparent KD of MS2 coat protein” value (input ligand: FMN 200 uM) was 28.3 nM and the “apparent KD of MS2 coat protein” value (input ligand: none) is 24.3 nM.
For “CUUAUGUGAGGAUAUGCCUGGCCGUGAGGCCAAAUUGAUAAGCAGAAGGCACAUGAGGAUCACCCAUGUGCGGG [jl-ex4-4.68 ViennaUCT mod] (Eterna round: R97, puzzle: Exclusion 4)”, in that order: 112 nM and 241 nM.
Take “UUUUUAUAUGAAGGAUAUACUUAACAUGAGGAUCACCCAUGUGGUGUUGUGAGUGAGUGAGUUUAGUAGAAGGUCAAGUAUUGU [JMF's solution 39] (Eterna round: R96, puzzle: Exclusion NG 2)”: the “apparent KD of MS2 coat protein” value is, setting by setting: (input ligand: FMN 200 uM) 891 nM; under setting [4], 347 nM; (input ligand: none) 441 nM.
